± gives the half width of the 95% confidence interval.
assay: folding stability dG unfold from trypsin proteolysis; higher = more stable
Method in brief: (§1)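 Designed mini-proteins with no cysteine and under 80 residues were kept only if AlphaFold2 dimer inter-PAE was above 15. In a PA-tagged cDNA display construct, they were digested with trypsin and chymotrypsin and then sequenced. K50 was inferred by Bayesian fitting of counts, and unfolding free energy was derived per protease or combined against a sequence-predicted unfolded-state K50 and a shared folded-state K50.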

Sequence | folding stability dG unfold
SAGGSAGQKIQIERVQWNPEEGYFFIRIRYPGNGREIEHHIRLDNIEIELPPGAKITDIEIYPLPNSAGGSA [r15_959_TrROS] | 1.8 ± 0.079 kcal/mol
SVVRLPNGEWFEVDGRLVRVTVDEETGEIVDVEVYEVTVEEPPPPPPPLEVTVTVEPDAPPGATITITVTSA [r9_90_TrROS_Hall] | 1.8 ± 0.13 kcal/mol
SAGGMPTYTITITSPETGELKELPPNISQTFDPNNVTYYTFTSEEEAKEAIKLIAPQNGWKVTITSSSAGGS [r8_131_JUSTAS] | 1.37 ± 0.22 kcal/mol
SLPYTPSTAELTLTLPGGEVKVKANVYTLPDGSTITIATFPDGSVAVYDPSLGRLVLYDPSTGKPIAVLGSA [r9_970_TrMRF] | 2.41 ± 0.038 kcal/mol
SAGGMLLVEAPDGTTVEVTPEQAADLTPGAVVRHPSGDVWTYNPANDETVRIPWVSPAEVERAVAELSSAGG [r13_962_JUSTAS] | -0.0974 ± 0.038 kcal/mol
SAGGSAGGSAYIPAEEIAEEVAAVLPPDEVALFPLPEKPLVVLVVREEDGVPRVLVLPPELASAGGSAGGSA [r18_61_TrMRF] | 0.00934 ± 0.069 kcal/mol
SAGGEKEEIIKKLSKYPKNYRVLLKSPDGTLYEYSSPEEVIKMPLTLPNGKEVIIVKISPEKSPKLLSAGGS [r16_680_JUSTAS] | 0.438 ± 0.091 kcal/mol
SAGGSAGGSAGGMIVLKDPDPARLEARAEELRAELEAAGRELPPDVEIEVLEAEPDPALLSAGGSAGGSAGG [r7_965_JUSTAS] | -0.194 ± 0.21 kcal/mol
SAGGSAMKIVEKKTVTLTLPDGREVTVTLTKVEVDGETYYVLTVTDKDTGKTYTFVFKPGQSLEDLSAGGSA [r15_75_TrROS_Hall] | 3.17 ± 0.092 kcal/mol
SAGGSAGGFKIRPIGVDDNYIVFRFRPDDPEALKKLGFKITGVEESGGSVEIIFRMPPEAKDLISAGGSAGG [r6_109_TrROS] | 0.781 ± 0.12 kcal/mol
SAGGSAPVKLVVVYDEKTGEYRILAETPEGPVVFPFPRELFENIPLEDIAKLLNLEITEAVIVPNPSAGGSA [r15_801_TrMRF] | 2.63 ± 0.086 kcal/mol
SAGGSAGMTVTKTFTLPGYKVELTTHPGLPPDAPVTIEVTLTPPDGSVVKSTRTVLARPDDPSVLLSAGGSA [r15_10_JUSTAS] | 2.15 ± 0.13 kcal/mol
SAGGSAGGSSPDNKPVPPRFMIHVEIEPIKIPPEMREAAKDDPDNIDEIYVITIDVYFVGDDFSAGGSAGGS [r12_196_TrROS] | 2.22 ± 0.063 kcal/mol
SAGGSAGGSKKVTIVLSKEELRELFENLTPEQIAELLKKKFPKIKRVEVKEVDGKLVIEVEVESAGGSAGGS [r12_590_TrROS_Hall] | 3.15 ± 0.26 kcal/mol
DYRVVIEDLELVPAPPGTRISMPAWVDHDGVRYGEVESYVDPETGTVTLRLLVEPDGEPRELTLTLPVPPES [r1_47_TrMRF] | 0.545 ± 0.034 kcal/mol
SAGGSAGGSAGSMQTEVTFERGPGRLTTTTTTKFPDNRWSTTTSTSPVPARPPLPPAPVLLSAGGSAGGSAG [r3_68_JUSTAS] | -0.817 ± 0.52 kcal/mol
SFFVEFGIEHNPENNYIHINFRIYEPDPNGQWRPSSSIPITIPIKIPPPPVPKIEVPEGAKDPEDAADALSA [r9_888_TrROS] | 2.92 ± 0.2 kcal/mol
SMPEPLVLRVRVRDPENPEPVLEFELVIPPDGGVLVLARHPDRVEVREMPLEEAIDLLLSLPFEIEEVEGSA [r9_470_TrMRF] | 2.85 ± 0.068 kcal/mol
SAGGSAGGPEIRITEARRDPNGMFTFIVEIPPEDLDNIKPGEEIEITFNGQEFNFNVQIIPADDSAGGSAGG [r6_373_TrROS] | 0.257 ± 0.14 kcal/mol
SAGGSAGGSMKIRIERTPDKLTIMIPPDNPDKIKNIIDNFGYPITDVKVTQNPPGMHMIEIPLSAGGSAGGS [r12_493_TrROS] | 1.58 ± 0.095 kcal/mol
SAMPLLVKVTFYPKDPVTGIPSEEIEEKEVPDIEEAIKEVKKKLPKDNSAKIEVLDENGKLLKTIDLNLSAG [r14_234_JUSTAS] | 0.721 ± 0.029 kcal/mol

assay: folding stability dG unfold (combined trypsin and chymotrypsin); higher = more stable
Method in brief: as §1

Sequence | folding stability dG unfold
SAGGKTKTYTFVLEDPVKKGIPVLAKVTVTYEPDENGNEVAPANVVVYYPDGKPEVLKVDVSNITGTGSAGG [r13_787_TrMRF] | 0.737 ± 0.06 kcal/mol
KIWIPNASWSQIKNIIRNAIKDGKERTIWIPMDPNMKPNIIDYLKDLPGIKDVEPYPNGWVKIEIDKAELKS [r1_324_TrROS] | 2.81 ± 0.18 kcal/mol
SAMTIKIEVINEKGEKIEITIPVKKEDLEKLKEEIEKELKKLAEEKGEKVKVEIVEVDENGYLKIRVYKSAG [r14_622_TrROS_Hall] | 2.73 ± 0.21 kcal/mol
SAGGSADELLDKLGLPPDNIRKIKPVEPNPNGMRQLELEWPYKENGKEWRITIMYSPDGIMIDIEPSAGGSA [r15_813_TrROS] | 1.57 ± 0.1 kcal/mol
SASITHTVPGVQVRAYLNPDGYMFIQVYNPNDGEPKQPIWMPPDHITDVEVTGDWVKITIKMDPEDFKLSAG [r14_755_TrROS] | 2.06 ± 0.16 kcal/mol
SAGGSAGGKKKIIKIKNKDGEYLIKVKTKDGKTVEFKKFKSLEEALKALPKEKIEKIEIIPLKKSAGGSAGG [r6_307_TrROS_Hall] | 2.06 ± 0.42 kcal/mol
SAGGSAGGSAGGKKYKITVPFKTKDGSGKPITSNFGKKKLEEILKKHPELKPAIEKALKKSAGGSAGGSAGG [r7_637_TrMRF] | 0.771 ± 0.29 kcal/mol
SAGGSAGGSAGGKPKVILLEGIKKIEVKDGKVTIEADEPVLLVIDEDGNVHIYRLPKEDLSAGGSAGGSAGG [r7_29_TrROS_Hall] | 1.35 ± 0.11 kcal/mol
SAGGSAGGSMVEGELPDAKVTVFFHPDGGALALVEFETETVLARIDVLPDDTLKITVIPAKDASAGGSAGGS [r12_669_TrMRF] | 2.16 ± 0.072 kcal/mol
SAGGAEEKIREIAEKLGVKEVLSADEAEKLPPEYPKRIAVVPRPDGSVLVIVRLENGEVLVIEFPVDSAGGS [r16_686_TrMRF] | 2.15 ± 0.086 kcal/mol
